Data from PMC9569620, “OsNAC15 Regulates Tolerance to Zinc Deficiency and Cadmium by Binding to OsZIP7 and OsZIP10 in Rice”.

T1: GST-OsNAC15 (Oryza sativa, UniProt K9LKF1 1-301)
T1 sequence: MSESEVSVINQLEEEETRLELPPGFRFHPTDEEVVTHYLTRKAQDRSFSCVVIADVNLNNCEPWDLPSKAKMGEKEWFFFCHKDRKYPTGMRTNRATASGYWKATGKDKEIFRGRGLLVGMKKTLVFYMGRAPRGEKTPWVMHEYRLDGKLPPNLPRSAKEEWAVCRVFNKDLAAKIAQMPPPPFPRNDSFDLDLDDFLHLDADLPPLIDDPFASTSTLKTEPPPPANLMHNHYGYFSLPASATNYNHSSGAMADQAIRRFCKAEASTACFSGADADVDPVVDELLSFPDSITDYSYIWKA

B1: OsZIP10 probe (dsDNA)
DNA 1: TCGCGCCATGGTGTCGACACGGCCATCTCT
DNA 2: AGAGATGGCCGTGTCGACACCATGGCGCGA
B2: OsZIP10 cold competitor (dsDNA)
DNA 1: B1 DNA 1
DNA 2: B1 DNA 2

What was measured:
GST-OsNAC15 [1] = target: T1, GST-OsNAC15; assay: EMSA; EMSA: 20 uL reaction, room temperature, 20 min; 6.5% polyacrylamide gel in 0.5x TBE, 1 h; buffer, salt and pH not stated (LightShift Chemiluminescent EMSA kit); conditions: protein: recombinant; tags: N-term GST (pGEX-4T1); chain copies: 2; label: biotin at 5' of F strand; biotin printed at 3' end of R strand; blunt
GST-OsNAC15 [2] = target: T1, GST-OsNAC15; assay: competition; 25-fold molar excess over labeled OsZIP10 probe; complex band weaker; EMSA: 20 uL reaction, room temperature, 20 min; 6.5% polyacrylamide gel in 0.5x TBE, 1 h; buffer, salt and pH not stated (LightShift Chemiluminescent EMSA kit); conditions: protein: recombinant; tags: N-term GST (pGEX-4T1); chain copies: 2; label: none; blunt

Binder	binding result (GST-OsNAC15 [1])	binding result (GST-OsNAC15 [2])
B1	binds	
B2		binds
